According to PMC3570549, “HAMP Domain Conformers That Propagate Opposite Signals in Bacterial Chemoreceptors” (PLoS Biology, 2013):
Residue numbers refer to the chain shown, from its start. Names may count otherwise.

B1: Aer2 1–172 L44H (domain or fragment)
chain: MGLFNAHAVAQQRADRIATLLQSFADGQLDTAVGEAPAPGYERHYDSLRALQRQLREQRAELQQVESLEAGLAEMSRQHEAGWIDQTIPAERLEGRAARIAKGVNELVAAHIAVKMKVVSVVTAYGQGNFEPLMDRLPGKKAQITEAIDGVRERLRGAAEATSAQLATAAYN
notes: Aer2, soluble receptor of Pseudomonas aeruginosa, residues 1-172 (HAMP1, HAMP2, HAMP3); also called L44H HAMP1 mutant; source: purified as previously described for the WT protein [7], induction temperature reduced to 18°C
B2: Aer2 1–172 V33G (domain or fragment)
chain: B1 chain with V33G, H44L
notes: Aer2, soluble receptor of Pseudomonas aeruginosa, residues 1-172 (HAMP1, HAMP2, HAMP3); also called HR2 mutant of HAMP1; source: purified as previously described for the WT protein [7], induction temperature reduced to 18°C
B3: H2C AS1 (Aer2 1–172 A81C, MTSSL spin-labeled) (domain or fragment)
chain: B1 chain with H44L, A81C
modifications: MTSSL spin label on the engineered Cys at 81
notes: Aer2, soluble receptor of Pseudomonas aeruginosa, residues 1-172; source: Aer2 1–172 mutant proteins purified as previously described for the WT protein [7]; spin-labeled with MTSSL
B4: H1C AS1 (Aer2 1–172 D26C, MTSSL spin-labeled) (domain or fragment)
chain: B1 chain with D26C, H44L
modifications: MTSSL spin label on the engineered Cys at 26
notes: as for B3

Tests used:
[1] = target: the molecule itself; test: crystal structure; Aer2 1–172 mutant proteins; L44H by vapor diffusion, 1.5–1.7 M MgSO4, 0.1 M Tris pH 8.5, room temperature, space group P3(2)12; V33G in conditions and space group of the WT; molecular replacement
[2] = target: the molecule itself; test: pulsed dipolar ESR spectroscopy (PDS, double electron electron resonance); inter-subunit distances between MTSSL spin labels on one engineered Cys per subunit; 17.35 GHz; protein 25–50 µM

Row | Protein | binding result [1] | binding result [2]
1 | B1 | binds | 
2 | B2 | binds | 
3 | B3 |  | binds
4 | B4 |  | binds
